# Numbering of substitutions follows the chain as printed.
# T1: Rhesus D antigen (human, UniProt Q02161 2-417)
# T1 construct: whole, on cells; Presented on RhD(+) erythrocytes; also called RhD; RhD antigen
# T1 sequence (looked up): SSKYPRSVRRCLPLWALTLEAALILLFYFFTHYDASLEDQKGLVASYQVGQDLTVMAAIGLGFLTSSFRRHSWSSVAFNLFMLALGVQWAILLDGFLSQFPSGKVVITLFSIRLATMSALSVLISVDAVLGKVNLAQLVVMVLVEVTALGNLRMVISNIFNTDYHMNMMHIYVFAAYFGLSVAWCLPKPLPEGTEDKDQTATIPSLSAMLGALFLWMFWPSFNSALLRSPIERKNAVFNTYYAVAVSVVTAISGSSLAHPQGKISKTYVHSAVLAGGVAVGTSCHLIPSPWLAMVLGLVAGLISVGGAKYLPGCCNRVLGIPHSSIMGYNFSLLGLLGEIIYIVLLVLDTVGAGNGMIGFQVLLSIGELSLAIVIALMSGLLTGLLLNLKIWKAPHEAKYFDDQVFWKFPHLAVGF
# B1: RhD244.158B10 (Fab, V domains shown)
# VH: QVQLVESGGGVVQPGRSLRLSCAASGFSFSSYGMHWVRQAPGKGLEWVAIIWYDGSNKLYADSVKGRFTISRDNSRNTLYLQMSSVRAEDTAVYYCARDSVRGVSRWGTQKYYAMDVWGQGTTVTVSS
# VL: DIQMTQSPSSLSASVGDRVIITCRASQSVNRYLNWYQQKPGKAPKLLIYAASSLQGGVPSRFSGSGSGTDFTLTISSLQREDFATYYCQQSYRTRTFGQGTKVEIKR
# notes: Tested as Fab in E. coli periplasmic extract (VH on human gamma 1 CH1, vector Em351)
# B2: RhD203.179F07 (Fab, V domains shown)
# VH: EVQLVESGGGVVQPGRSLRLSCAASGFTFSNYGMHWVRQAPGKGLEWVAVIWYDGSNKYYADSVKGRFTISRDNSKNTLYLQMNSLRAEDTAVYYCAREMVSYSSSWYRRYYYYVMDVWGKGTTVTVSS
# VL: QSALTQPASVSGSPGQSITISCTATSSDIGAYNYVSWYQHHPGKAPKVIITDVNKRPSGVPDRFSGSKSGNTASLTISGLQPEDEAEYSCCSYAGTYSYVFGTGTKVTVLS
# notes: as for B1
# B3: RhD242.181A03 (Fab, V domains shown)
# VH: B2 VH with Y32H, V101A
# VL: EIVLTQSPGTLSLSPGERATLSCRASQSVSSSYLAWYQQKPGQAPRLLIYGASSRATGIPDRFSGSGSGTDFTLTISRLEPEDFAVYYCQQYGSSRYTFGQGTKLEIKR
# notes: as for B1
# B4: RhD246.179B10 (Fab, V domains shown)
# VH: B2 VH with S7T, N31S, V115N
# VL: LSSELTQDPAVSVTLGQTVRITCQGDSLRHSYASWYQQKPGQAPILVIYGKNIRPSGIPDRFSGSTSGNTASLTITGAQAEDGGDYYCNSRDTSTDHYVFGDGTRVTVVG
# notes: as for B1
# B5: RhD208.179B11 (Fab, V domains shown)
# VH: B2 VH with S30R, N31T, Y32S, G33A, V115N
# VL: QAVVTQEPSLTVSPGGTVTLTCASSTGSVTSGYYPNWFQQKPGQAPRPLISGTSNKLSWTPARFSGSLLGGKAALTVSGVQPEDEAVYYCLLYYGVPQPVVFGGGTKLTVLG
# notes: as for B1
# B6: RhD239.126F09 (Fab, V domains shown)
# VH: QVQLVESGGGVVQPGTSLRLSCAASGFTFRTYGMHWVRQAPGKGLEWVAYIWYDGSNKYYADSVKGRFTISRDNSKSTLNLQMNSLRAEDTAVYYCAREIASRGYSRYLYYFDSWGQGTLVTVSS
# VL: DIQLTQSPSSLSASVGDRVTITCRASQSISSYLNWYQQKPGKAPKLLISAASSLQSGVPSRFSGSGSGTDFTLTISSLQREDYATYYCQQSYSTPPYTFGQGTKLEIKR
# notes: as for B1
# B7: RhD292.109A02 (Fab, V domains shown)
# VH: QVQLVETGGGVVQPGRSLRLSCAASGFTFSSYGMHWVRQAPGKGLEWVAVIWSDGSNKYYADSVKGRFTISRDNSRNTLYLQMNSLRAEDTAVFYCAREQGGYSSSWYRRYYYYYMDVWGQGTTVTVSS
# VL: B6 VL with L4M, Y32W, K45N, S49F, S53T, R80P, Y83F, T94S, P95S, P96V
# notes: as for B1
# B8: RhD241.119B05 (Fab, V domains shown)
# VH: QVQLQESGPGLVKPSETLSLICTVSGGSISSNYWSWIRQPPGKGLEWIGYIYYSGNTNYNPSLKSRVTISLDTSKNQFSLKLRSVTAADTAVYYCAREWRQYGSGIRGSRYYYGMDVWGQGTLVTVSS
# VL: EIVLTQSPVTLSLSPGERATLSCRASQSVSSGYLAWYQQKPGQAPRLLIYGTSIRATGIPDRFSGSGSGTDFTLTISRLEPEDFAVYYCQQYGSSPLYSFGQGTKVDIKR
# notes: as for B1
# B9: RhD158.119B06 (Fab, V domains shown)
# VH: EVQLVETGGGVVQPGRSLRLSCAASGFSFSNFGFHWIRQSPGKGLEWVAVIWYDGSNRFYADSVKGRFTISRDSSKNMLFLQMDSLRAEDTAVYYCAREISMKVVIRRHYVMDVWGHGTTVTVSS
# VL: DIQMTQSPSPLSASVGDRVSITCRASRGISNSLAWYQQKPGKVPKLLIYAASTLQSGVPSRFSGGGSGTDFTLTISSLQPEDVATYYCHTYNSAPFAFGPGTKVDIKR
# notes: as for B1
# B10: RhD202.158E07 (Fab, V domains shown)
# VH: QVQLVESGGGVVQPGRSLRLSCAASGFTFSSYGMHWVRQAPGKGLEWVAVIWFDGSNRYYGDSVKGRVTISRDNSKNTLYLRMNSLRAEDTAVYYCAREFYTRSGLWSQGYSYYMDVWGKGTTVTVSS
# VL: EIVLTQSPGTLSLSPGERATLSCRASQSVSSSYLAWYQHKPGQAPRLLIYGSSNRATGIPDRFSGSGSGTDFTVTISRLEPEDFAVYYCQQYGTAPYTFGQGTKLEIKR
# notes: as for B1
# B11: RhD205.160B12 (Fab, V domains shown)
# VH: EVQLVETGGGLVKPGGSLRLSCAASGFTFRSYSMNWVRQAPGKGLEWVSSIGSSSTYTYSADSVKGRFTISRDNAKNSLYLQMNSLRAEDTAVYYCARGEPLNYDYIWGGYRFTIHWGQGTLVTVSS
# VL: DIQLTQSPSFLSASVGDRVTITCRASHGISSYLAWYQQKPGKAPNLLIFPASTLQSGVPSRFSGSGSGTEFTLTISSLRPEDFATYYCQQLNSYSRWAFGQGTKVEVKR
# notes: as for B1
# B12: RhD204.128A03 (Fab, V domains shown)
# VH: EVQLVESGGGVVQPGRSLRLSCAASGFSFSNYGMHWVRQAPGKGLEWVAVISYDGSEKYYADSVKGRFTISRDNSKKALYLQMNSLRAEDTAMYYCKNKVGATRRAVVAFDIWGQGTTVTVSS
# VL: LSSELTQDPAVSVALGQTVRITCQGDSLRSYYANWYQQKPGQAPLSVIYGKNNRPSGIPDRFSGSNSGNTAFLTITGTQAEDEADYYCNSRDSSGNYRELFGGGTKLTVLG
# notes: Tested as Fab in E. coli periplasmic extract (VH on human gamma 1 CH1, vector Em351); Lambda clone
# B13: RhD243.109A05 (Fab, V domains shown)
# VH: QVQLVESGGGVVQPGRSLRLSCAASGFTFSTYGMHWVRQAPGKGLEWVAVIWYDGSQKYYVDSVKGRFTISRDNSKNTLYLQMNSLRAEDTAVYYCAREVAVRGVIRYYYGMDVWGQGTTVTVSS
# VL: DIQLTQSPSSLAASVGDRVIITCRSGQGIRNYLNWYQQKPGKAPKLLIYAASFLQSGVPSRFSGSGSGTDFTLTISSLQPEDFATYNCQQSYSDPWTFGQGTKVEIKR
# notes: as for B1
# B14: RhD240.125A09 (Fab, V domains shown)
# VH: QLQLQESGPGLVKPSGTLSLTCAVSGGSMRSSNWWTWVRQPPGKGLEWIGEIHHGGSTNYNPSLQSRVTISVDKSKNRFSLKLSSVTAADTAVYHCARGRSYYDSSGHSFRGLVPFDIWGQGTMVTVSS
# VL: DIQMTQSPSTLSASVGDRVTITCRASQSISSWLAWYQQKPGKAPKLLVYKTSSLEGGVPSRFSGSGSGTEFSLTIFRLQSDDFATYYCQQYNSFPYTFGQGTKLEFTR
# notes: as for B1
# B15: RhD245.164E06 (Fab, V domains shown)
# VH: EVQLVQSGGGVVQPGRSPRLSCAASGFTFSSYGMHWVRQAPGKGLEWVAFIWYDGSNKYYADSVKGRFTISRDNSKNTLYLQMNSLRAEDTAVYYCARDLRNHVFWSGYSTSFDYWGQGTLVTVSS
# VL: DIQMTQSPSSLSASVGDGITITCRASQSVRSYLNWYQQKPGKAPELLIYAASRLQSGVPSRFSGSGSGTDFTLTISSLQPEDFATYYCQHSYSTPVTFGQGTKVEVKR
# notes: as for B1
# B16: RhD206.160C06 (Fab, V domains shown)
# VH: QVQLVESGGGVVQPGRSLRLSCAASGFTFSSYGMHWVRQAPGKGLEWVAIIWFDGSNKYYADSVKGRFTISRDNSKNTLYLQINSLRAEDTAVYYCAKEHGYYSSSWYRNYYYYAMDVWGQGTTVTVSS
# VL: DIQMTQSPSSLSASVGDRVTITCRASQSIRRYLNWYQKKPGKAPKLLIYAASSLQSGVPSRFSGSGSGTDFTLTISSLQPEDFATYYCQQSYRTQGLTFGGGTKVEIKR
# notes: as for B1
# Target: T1, Rhesus D antigen
# Experiment: agglutination assay, Fab periplasmic extract on RhD(+)/RhD(-) RBC mix
# Method: After each round of panning single colonies were picked for analysis of their binding properties to red blood cells in agglutination assays. Briefly, single colonies were inoculated into 2×YT/100 μg/mL carbenicillin/1% glucose and shaken overnight at 37° C. The next day, DeepWell plates were inoculated using 900 μl 2×YT/100 μg/mL carbenicillin/0.1% glucose and 10 μl overnight culture. The plates were shaken for two hours at 37° C., before Fab induction was performed with addition of 300 μl 2×YT/100 μg/mL carbenicillin/0.25 mM IPTG per well. The plate was shaken overnight at 30° C. The following day, the bacteria were pelleted by centrifugation (3200×g, 4° C., 10 minutes), and re-suspended in 100 μl of 0.8 M NaCl, 0.2×PBS, 8 mM EDTA, and incubated for 15 minutes on ice in order to perform a periplasmic extraction of the Fab fragments. The plate was transferred to −20° C. and finally the suspension was thawed and centrifugation was performed for 10 minutes at 4° C. and 3200×g. The periplasmic extract was used in ELISA assays for analysis of Fab content and in agglutination assays to evaluate the binding potential of the individual Fab fragments.
# The agglutination assay was performed as follows: RhD(−) and RhD(+) RBC were mixed in a 1:1 ratio, and washed 3 times in PBS. After the final wash, the cell mix was re-suspended in 1% BSA in PBS at a density of 10% cells, 50 μl was added to each well of a 96-plate. Periplasmic extracts were added to the wells. As a positive control Rhesogamma P immunoglobulin (Aventis) was used according to the manufacturer's instructions. The plates were incubated for one hour at room temperature with gentle shaking. The cells were washed three times with PBS, before the secondary antibody was added (goat anti-human Fab/FITC conjugate, Sigma F5512) in a 1:100 dilution. The plates were left for agglutination for one hour at room temperature without shaking. Fab fragments positive in the agglutination assay was determined by visual inspection, and recorded by taking a picture. Quantization of the binding activity of the Fab fragments was performed by FACS analysis of the agglutination samples.
row,binding result,Binder
1,binds,B1
2,binds,B2
3,binds,B3
4,binds,B4
5,binds,B5
6,binds,B6
7,binds,B7
8,binds,B8
9,binds,B9
10,binds,B10
11,binds,B11
12,binds,B12
13,binds,B13
14,binds,B14
15,binds,B15
16,binds,B16

# — US20090017017A1 (SYMPHOGEN A S, published 2009)
